Measurements: paper PMC9162458 (2022)
Where two headings read alike, the source gives them in different places. Ends that are not written are not given here.

B1: LiRAD51^ATPase (Leishmania infantum RAD51 ATPase domain, residues 134–386) (domain or fragment)
chain: EIIMVTTGSREVDKLLGGGIETGSITELFGEFRTGKTQLCHTLCVTCQLPISQGGAEGMALYIDTEGTFRPERLVAVAARYGLDPEDVLANVACARAFNTDHQQQLLLQASAMMAENRFALIVVDSATALYRTDYSGRNELAARQMHLGKFLRSLHNLAEEYGVAVVVTNQVVANVDGSAQMFQADSKKPIGGHIMAHASTTRLSLRKGRGEQRIIKVYDSPCLAEAEAIFGIYDDGVGDARD

Tests used:
[1] = target: B1; assay: FP
[2] = target: B1; assay: FP
[3] = target: B1; assay: ITC
LiBRC1.6 = assay: FP
LiBRC1.12 = assay: FP
LiBRC1.4 = assay: FP
LiBRC1.5 = assay: FP
[4] = target: B1; assay: FP

GB1-RVPTLFETGRGKAVTVQKRSLDKAEASMDSLEA-His8 (domain or fragment) [GB1-LiBRC2-His8 (BRC repeat 2 of Leishmania infantum BRCA2 fused to GB1)]
IC50 [1]: 55 µM

LVPTLFSTASGKPVTVRRESLQK (domain or fragment, not fully specified (N-terminus); also: GB1 fusion) [LiBRC1.10 (C-terminal truncation of LiBRC1, Val131 also removed, GB1 fusion)]
IC50 [2]: 41 µM

LVPTLFSTASGKPVTVRRESLQKVA (domain or fragment, not fully specified (N-terminus); also: GB1 fusion) [LiBRC1.8 (C-terminal truncation of LiBRC1, Glu133 also removed, GB1 fusion)]
IC50 [2]: 8.8 µM

GSLVPTLFSTASGKPVTVRRESLQKVAERLGDLAA [LiBRC1 free peptide]
Ka [3]: 1.54e+06 M⁻¹

B1
Kd (LiBRC1.6): 1.09 µM
Kd (LiBRC1.12): > 124 µM
Kd (LiBRC1.4): 0.41 µM
Kd (LiBRC1.5): 0.38 µM

AAAPPLVPTLFSTASGKPVTVRRESLQKVAERLGDLAA (domain or fragment, not fully specified (N-terminus); also: GB1 fusion) [LiBRC1.3 (LiBRC1 with extended termini, GB1 fusion)]
IC50 [2]: 1.67 µM

LVPTLFSTASGKPVTVRRESLQKV (domain or fragment, not fully specified (N-terminus, C-terminus); also: GB1 fusion) [LiBRC1.9 (C-terminal truncation of LiBRC1, GB1 fusion)]
IC50 [2]: 11 µM
Kd [4]: 2.63 µM

LVPTLFSTASGKPVTVRRESLQKVAE (domain or fragment, not fully specified (N-terminus); also: GB1 fusion) [LiBRC1.7 (C-terminal truncation of LiBRC1, residues up to Arg134 removed, GB1 fusion)]
IC50 [2]: 1.99 µM

LVPTLFSTASGKPVTVRRESLQKVAERLGDLAAPDME (domain or fragment, not fully specified (N-terminus); also: GB1 fusion) [LiBRC1.2 (LiBRC1 with extended termini, GB1 fusion)]
IC50 [2]: 1.2 µM

LVPTLFSTASGKPVTVRRESLQ (domain or fragment, not fully specified (N-terminus); also: GB1 fusion) [LiBRC1.11 (C-terminal truncation of LiBRC1 up until Gln129, GB1 fusion)]
IC50 [2]: 36.5 µM

GB1-LVPTLFSTASGKPVTVRRESLQKVAERLGDLAA-His8 (domain or fragment) [GB1-LiBRC1-His8 (BRC repeat 1 of Leishmania infantum BRCA2 fused to GB1)]
IC50 [1]: 1.57 µM
